Test results taken from US8298536B2, “Methods of treating inflammatory pain” (Pfizer Limited, priority 2008, dated 2012).
Each block holds one molecule with its values, some of them ahead of it.

What was measured:
[1] = target: T1, human β-CGRP (Homo sapiens, UniProt P10092); experiment: Biacore binding affinity, N-biotin β-human CGRP on chip; details: 37 ° C.
T1 construct: CGRP (calcitonin gene-related peptide) is a 37 amino acid neuropeptide
T1 sequence (P10092 82-118 limits assumed): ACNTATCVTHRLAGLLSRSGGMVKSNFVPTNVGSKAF
From the text: (§1) G1 was titrated over the chip surface Binding affinities were deduced from the quotient of the kinetic rate constants (KD=koff/kon) see Table 1.

[2] = target: T2, rat α-CGRP (Rattus norvegicus, UniProt P01256); experiment: Biacore binding affinity, N-biotinylated rat α-CGRP on chip
T2 construct: CGRP (calcitonin gene-related peptide) is a 37 amino acid neuropeptide
T2 sequence (P01256 83-119 limits assumed): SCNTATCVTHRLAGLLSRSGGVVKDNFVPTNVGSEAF
From the text: as §1

[3] = target: T3, rat β-CGRP (Rattus norvegicus, UniProt P10093, R105S); experiment: Biacore binding affinity, N-biotin β-rat CGRP on chip; details: 37 ° C.
T3 construct: CGRP (calcitonin gene-related peptide) is a 37 amino acid neuropeptide
T3 sequence (P10093 89-125 R105S limits assumed): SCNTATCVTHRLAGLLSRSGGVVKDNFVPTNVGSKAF
From the text: as §1

[4] = tested on: OA hind limb of the rat (MMT); experiment: Osteoarthritis pain model (transection of the medial meniscus, MMT), weight bearing; assay type: in vivo
Protocol: FIG. 1: Osteoarthritis pain model. […] Both antibodies were dissolved in a vehicle solution containing PBS+0.01% Tween 20. Celecoxib was used as positive control in the study. It was suspended in 0.5% methylcellulose and 0.025% Tween-20 and was administered by oral gavage (1 ml/kg) at 30 mg/kg, twice a day throughout the study period. Pain responses were assessed on day 2, 3, 7 and 10 following initiation of the pharmacology study (day 0) and were assessed in a fully blinded fashion. Data re the mean±SEM of 6 rats per group. *p<0.05 and p<0.01 vs baseline value (Dunnett's test in GraphPad Prism). In the figure, from left to right, bar 1=baseline, bars 2-5=null antibody, bars 6-9=1 mg/ml G2, bars 10-13=10 mg/ml G2, bars 14-17=Celecoxib 30 mg/ml.
Transection of the medial meniscus (MMT) in one hind knee of the rat results in the development of cartilage lesions and other changes in the joint similar to those that occur in OA. The resulting joint pain leads to the development of sustained changes in weight bearing (assessed using an incapacitance meter) in the rat hind limbs and mechanical (tactile) allodynia (assessed using von Frey filaments), in the hind paw, lasting several weeks. Studies were carried out accordingly to a blind protocol, where the investigator was not aware of the identity of the compound/control or the treatment of the animal.

[5] = CNS penetration; details: in vivo
[6] = tested on: rats; experiment: Long term observation for adverse CNS events (dependence indicators); assay type: in vivo, rat; details: in comparison to control animals
[7] = tested on: rat; experiment: Gastro-intestinal adverse effects in-vivo study
[8] = tested on: neurogenic skin flare rat model; experiment: Neurogenic skin flare model (saphenous nerve stimulation, laser Doppler blood flow); assay type: in vivo; details: for start of significant decrease in blood flow response / development of neurogenic flare in vivo: rat
Protocol: FIG. 7: Data showing G1 inhibits neurogenic flare in the skin starting from 90 min post-treatment. G1 was administered by intravenous administration (1 ml/kg). Data are from 6-8 or 13 rats per group. *p=0.05, **p=0.01 vs vehicle (phosphate buffered saline) treated group at each time point (AVOVA).
Using a neurogenic skin flare rat model the efficacy of G1 was tested for its ability to block CGRP effect in vivo. The saphenous nerve in the rat is electrically stimulated causing CGRP release from nerve endings and leading to vasodilation, the resulting changes in blood flow can be measured using laser Dopler methods.
Changes in blood flow parameters were expressed as the area under the curve (AUC, change in arbitrary Doppler flux units multiplied by time). CGRP receptor antagonist CGRP8-37 (400 nmol/kg, i.v.) was used as a positive control to validate the specificity of the model (data not shown). To determine the effect of G1 prior to dosing for each animal, the baseline blood flow response to stimulation was established with two saphenous nerve stimulations each 30 minutes apart. Rats were treated with G1 after the blood flow response of the second stimulation had returned to baseline levels (approximately 10 minutes post stimulation) and an additional four stimulations at 30 minute intervals were performed.

[9] = tested on: human or rat CGRP; experiment: Solution competition by Biacore: human or rat CGRP; assay type: binding; details: premixed mAb+peptide
From the text: (§2) FIG. 5: Solution competition by Biacore: CGRP, CGRP fragments or peptides related in sequence to CGRP were used to determine the specificity of G1.
(§3) We determined the specificity of antibody G1 to human or rat CGRP by using the Biacore chip to “probe” the free concentration of a premixed complex of mAb+peptide.

[10] = target: T4, amylin (Homo sapiens, UniProt P10997); experiment: Solution competition by Biacore: amylin; assay type: binding; details: pre-incubation with an excess of peptide
T4 sequence (P10997 34-70 limits assumed): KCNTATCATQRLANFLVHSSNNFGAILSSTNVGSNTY
From the text: as §2, §3

[11] = target: T5, calcitonin (Homo sapiens, UniProt P01258); experiment: Solution competition by Biacore: calcitonin; assay type: binding; details: pre-incubation with an excess of peptide
T5 sequence (P01258 85-116 limits assumed): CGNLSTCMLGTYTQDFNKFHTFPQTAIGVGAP
From the text: as §2, §3

[12] = target: T6, adrenomedullin (Homo sapiens, UniProt P35318); experiment: Solution competition by Biacore: adrenomedullin; assay type: binding; details: pre-incubation with an excess of peptide
T6 sequence (P35318 95-146 limits assumed): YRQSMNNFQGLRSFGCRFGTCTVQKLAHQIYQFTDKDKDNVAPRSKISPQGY
From the text: as §2, §3

[13] = target: 25-37 human α-CGRP fragment (Homo sapiens, UniProt P06881); experiment: Epitope identification, alanine scan of C-terminal CGRP fragment (Biacore 3000); assay type: binding; details: 25° C.
Protocol: (§4) FIG. 4: Alanine scan using a C-terminal CGRP fragment (CGRP 25-37).
(§5) Interaction analysis was conducted at 25° C. on a Biacore 3000™ system equipped with streptavidin-coated (SA) sensor chips (Biacore AB, Uppsala, Sweden) using a standard Biacore running buffer (HBS-P). […] Each amino acid between position 27-37 was then mutated individually to alanine and expressed the fold loss in affinity compared to the wild-type fragment. […] Purified Fab fragments of antibody G1 were generated. Fab fragments were titrated over the chip using 1 μM as the top concentration of a two-fold dilution series. Association and dissociation phases were monitored at 100 μl/min for 1 minute and 5 minutes respectively. Surfaces were regenerated with a mixture of 35% ethanol+25 mM NaOH+0.5M NaCl.

[14] = tested on: 25-37 human α-CGRP fragment; experiment: as above; assay type: binding; details: Fab fragments, positions 27-37 mutated to alanine, 25° C.
Protocol: as §4, §5

[15] = target: T7, human α-CGRP (Homo sapiens, UniProt P06881); experiment: Biacore binding affinity, N-biotinylated human α-CGRP on chip; design: as full-length N-biotinylated human α-CGRP
T7 sequence (P06881 83-119 limits assumed): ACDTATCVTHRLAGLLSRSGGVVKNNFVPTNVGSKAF
From the text: as §1

[16] = target: T7, human α-CGRP; experiment: Binding assay: blocking human α-CGRP from binding to the CGRP1-receptor in SK-N-MC cells; design: CGRP (calcitonin gene-related peptide) is a 37 amino acid neuropeptide; host or cells: SK-N-MC cells (endogenous receptor); details: FIG. 2
[17] = Plasma exposure of antibody in the OA pain study; assay type: in vivo; details: rat
Protocol: This effect lasted 10 days post administration when the plasma exposure of antibody G2 achieved an average value of 65.1±3 ug/ml (6.3±0.3 ug/ml, for the lower dose at 10 days post IV).

koff [1]: 6.98e-05 s⁻¹
kon [1]: 451000 M⁻¹ s⁻¹
koff ([2]; 25 ° C.): 6.18e-05 s⁻¹
kon ([2]; 25 ° C.): 50800 M⁻¹ s⁻¹
koff ([2]; 37 ° C.): 0.000399 s⁻¹
kon ([2]; 37 ° C.): 155000 M⁻¹ s⁻¹
koff [3]: 7.85e-05 s⁻¹
kon [3]: 516000 M⁻¹ s⁻¹
complex formation with amylin [10]: did not form a complex
complex formation with calcitonin [11]: did not form a complex
complex formation with adrenomedullin [12]: did not form a complex
affinity of N-biotinylated 25-37 human α-CGRP fragment vs full-length N-biotinylated human α-CGRP [13]: bound with the same affinity
koff ([15]; 25 ° C.): 7.8e-06 s⁻¹
kon ([15]; 25 ° C.): 186000 M⁻¹ s⁻¹
koff ([15]; 37 ° C.): 3.63e-05 s⁻¹
kon ([15]; 37 ° C.): 587000 M⁻¹ s⁻¹
Molecule: G1: humanized IgG2Δa monoclonal anti-CGRP antagonist antibody, vectors ATCC PTA-6867 and PTA-6866; variable regions SEQ ID Nos. 1 and 2 [Antibody G1]
shift in weight bearing on the OA limb ([4]; repeat experiments, buffer as negative control): reversed the shift in weight bearing on the OA limb to normal value
CNS penetration / crossing of blood brain barrier [5]: Neither antibody G1 nor antibody G2 demonstrate CNS penetration
adverse CNS events such as sedation or stimulation/euphoric behaviour [6]: did not reveal adverse CNS events
adverse gastro intestinal effects on behaviour, food intake, stool production or histopathology ([7]; 1 week comparative study): no adverse gastro intestinal effects were observed
effect in further neurogenic flare and vasodilatation model tests ([8]; 7 days post IV dosing): marked effect
start of inhibition of neurogenic flare in the skin ([8]; FIG. 7, intravenous administration): 90 min post-treatment
start of significant decrease in blood flow response ([8]; 1 mg/kg IV): 120 minutes post dose
start of significant decrease in blood flow response ([8]; 10 mg/kg IV): 90 minutes post dose
development of neurogenic flare in vivo [8]: prevent the development of neurogenic flare in vivo
predicted ED50 ([8]; saphenous nerve stimulation model): 6 µg/mL
Biacore response after pre-incubation with human or rat CGRP [9]: fully blocked
alanine scan result, binding region (epitope) [14]: binds to the C-terminal region of human α-CGRP, particularly residues 25 to 37
inhibition of binding of α-CGRP to the CGRP1 receptor [16]: inhibits the binding of α-CGRP to the CGRP1 receptor

B1: G2: anti-rat CGRP mouse monoclonal antibody (Wong H C et al. 1993); variable regions SEQ ID Nos. 19 and 20; RN4901 = murine tool in Table 1 legend (antibody, V domains shown)
VH: EVQLQQSGPELVKPGASVKMSCKASGYTFTSSVMHWVKQKPGQGLEWIGYINPYNDGTKYNEKFKGKATLTSDKSSSTAYMELSSLTSEDSAVYYCAKGGNDGYWGQGTTLTVSS
VL: EIVLTQSPTTMAASPGEKITITCSASSSISSIYLHWYQQKPGFSPKVLIYRASNLASGVPARFSGSGSGTSYSLTIGTMEAEDVATYYCQQGSTIPFTFGSGTKLEIK
modifications: Synthetic polypeptide, Antibody G2 heavy chain variable region; Synthetic polypeptide, Antibody G2 light chain variable region
duration of effect on weight bearing ([4]; 10 mg/kg, IV): 10 days post administration
weight bearing deficit of the OA hind limb ([4]; 10 mg/kg, IV): reversed weight bearing deficit of the OA hind limb
weight bearing deficit of the OA hind limb ([4]; lower dose (1 mg/kg, IV)): No effect
plasma exposure, average value ([17]; 10 mg/kg IV, 10 days post administration): 65.1 ± 3 µg/mL
plasma exposure, average value ([17]; lower dose, 10 days post IV): 6.3 ± 0.3 µg/mL
CNS penetration / crossing of blood brain barrier [5]: Neither antibody G1 nor antibody G2 demonstrate CNS penetration
adverse CNS events such as sedation or stimulation/euphoric behaviour [6]: did not reveal adverse CNS events
adverse gastro intestinal effects on behaviour, food intake, stool production or histopathology ([7]; 1 month study): no adverse gastro intestinal effects were observed
development of neurogenic flare in vivo [8]: prevent the development of neurogenic flare in vivo
